Data on one molecule can be found in doi:10.1101/2024.06.27.601040 (bioRxiv, 2024).

The target of the assay is MVP3-5 (residues 102-274 of human MVP), wild type (human, UniProt Q14764 102-274). Description: SEC.
Sequence of MVP3-5 (residues 102-274 of human MVP), wild type (Q14764 102-274): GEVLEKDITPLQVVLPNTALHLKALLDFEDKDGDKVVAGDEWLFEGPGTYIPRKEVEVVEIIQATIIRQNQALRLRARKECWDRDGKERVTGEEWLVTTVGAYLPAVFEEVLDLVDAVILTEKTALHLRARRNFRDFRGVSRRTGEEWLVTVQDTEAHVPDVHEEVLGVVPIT

B1: MINT domain (residues 1562-1724 of human PARP4), wild type (domain or fragment)
chain: VCIQHWQDAVPWTELLSLQTEDGFWKLTPELGLILNLNTNGLHSFLKQKGIQSLGVKGRECLLDLIATMLVLQFIRTRLEKEGIVFKSLMKMDDASISRNIPWAFEAIKQASEWVRRTEGQYPSICPRLELGNDWDSATKQLLGLQPISTVSPLHRVLHYSQG
For the molecule B1, the binding result is on record as “binds”.
